Experimental data published in patent US20090286858A1, “ASSAYS FOR MODULATORS OF ASPARAGINYL HYDROXYLASE” (ISIS INNOVATION LIMITED, priority 2002, published 2009).
Read-outs that look alike come from different tables or passages of the source. Blank lines part the entries; values can stand above or below the molecule they belong to. Where no end group is shown, it is not given here.

Legend:
Format in all cases: biochemical
FIH [1] = biological target: T1, FIH (Homo sapiens, UniProt Q9NWT6); test: FIH 2-OG decarboxylation (CO2 release) assay with HIF-1α polypeptide substrates; details: for % activity relative to 775-826 peptide: same conditions; for % activity relative to 775-826 peptide / CO2 released: polypeptide as FIH substrate; for CO2 released: standard assay conditions
T1 construct: His6 (N, cleaved yes); made in house; host or cells: Escherichia coli BL21(DE3)
Protocol: (§1) FIH assays—Assays for decarboxylation of 2-OG were performed using radiolabelled 2-OG (New England Nuclear) as reported in Epstein et al supra. Incubations contained ascorbate, DTT, catalase, 2-OG, FIH, and substrate in 50 mM Tris/HCl pH7.4, and were carried out at 37° C. typically for 20 minutes. HPLC separations were achieved on a Phenomenex Jupiter C4 (10 cm×4.6 mm) column by using of a linear gradient of CH3CN in 0.1% TFA. For inhibition and metal dependence assays, GST HIF-1α 775-826 was used as substrate at 30 μM, and with iron (II) ammonium sulfate, cobalt (II) chloride, zinc (II) chloride, and N-oxaloylglycine at final concentrations of 0, 2, 10, 40, 80 and 200 μM. Assays under an atmosphere of ^18O2 were performed as reported in McNeill et al, Bioorg Med Chem Lett, 2002 12, 1547-1550.

FIH [2] = biological target: T1, FIH; test: FIH inhibition and metal dependence assays (2-OG decarboxylation, GST HIF-1α 775-826 as substrate)
Protocol: as §1
Further characterization of FIH activity—To explore the mechanism of FIH and its relationship to the characteristics of in vivo HIF activation, in vitro analyses of FIH using the purified recombinant protein were performed.

FIH [3] = biological target: T1, FIH; test: GST pulldown assay: capture of 35S-labelled p300 CH1 by HIF-1α CAD after exposure to FIH; details: for ability to capture CH1 after pre-incubation with FIH: GST-fused polypeptide, 35S-labelled CH1
Protocol: N-oxaloylglycine was added to 5 mM when required. Glutathione Sepharose beads were added for 40 minutes at 25° C. and then washed with 50 mM Tris/HCl pH 7.4, 0.5% NP40, 150 mM NaCl and 1 mM DTT. […] Binding was performed for 1 hour at 25° C. and the beads were then washed in the same buffer. The bound proteins were eluted in SDS running buffer and analyzed by SDS-PAGE and autoradiography.

[4] = in vitro kinetic assays, recombinant FIH, GST HIF-1α 775-826 at 30 μM, read-out: IC50

T1 sequence (Q9NWT6 with tags, fused parts or gaps): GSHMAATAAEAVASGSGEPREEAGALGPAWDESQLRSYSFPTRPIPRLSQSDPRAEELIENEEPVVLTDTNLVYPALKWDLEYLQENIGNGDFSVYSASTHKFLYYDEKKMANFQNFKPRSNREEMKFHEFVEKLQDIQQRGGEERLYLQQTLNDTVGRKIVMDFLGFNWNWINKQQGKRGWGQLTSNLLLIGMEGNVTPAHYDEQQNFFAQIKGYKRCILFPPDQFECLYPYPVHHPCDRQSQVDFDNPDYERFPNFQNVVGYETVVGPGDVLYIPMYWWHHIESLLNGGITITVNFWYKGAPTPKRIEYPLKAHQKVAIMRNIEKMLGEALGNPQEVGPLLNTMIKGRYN

Molecule: 2-oxoglutarate [2-OG, reference compound]
Km (FIH [1]; preliminary kinetic parameter, with free HIF-1α 775-826 peptide, 2-OG turnover assay, read-out: Km(2-OG)): 10 µM

Molecule: [Cl-].[Cl-].[Co+2] [Cobalt (II), cobalt (II) chloride]
IC50 (FIH [2]; [4]): 10 µM

IC50 (FIH [2]): 25 µM | inhibition of FIH effect on CH1 capture by HIF-1α CAD (FIH [3]; N-oxaloylglycine 5 mM in FIH/HIF-1α CAD reaction step): inhibited the effect of FIH
Molecule: O=C(O)CNC(=O)C(=O)O [N-oxaloylglycine, reference compound]

Molecule: O=S(=O)([O-])[O-].O=S(=O)([O-])[O-].[Fe+2].[NH4+].[NH4+] [iron (II), iron (II) ammonium sulfate]
effect of exogenous metal on FIH activity (FIH [2]; added to purified FIH/HIF-1α CAD assay): no further increase in activity

Molecule: [Cl-].[Cl-].[Zn+2] [zinc (II), zinc (II) chloride]
IC50 (FIH [2]; [4]): 10 µM

% activity relative to 775-826 peptide (FIH [1]): 67% | CO2 released (FIH [1]): 0.81 nmol
Molecule: GST HIF-1α 577-826: GST tagged fusion of human HIF-1α residues 577-826

% activity relative to 775-826 peptide (FIH [1]): <0.01% | CO2 released (FIH [1]): <0.001 nmol | ability to capture CH1 after pre-incubation with FIH (FIH [3]): unaffected
Molecule: GST HIF-1α 775-826 N803A: GST HIF-1α 775-826 with Asn-803 mutated to alanine (PSDLACRLLGQSMDESGLPQLTSYDCEVAAPIQGSRNLLQGEELLRALDQVN; cysteine pairing not given here; also: GST fusion, not in chain)

% activity relative to 775-826 peptide (FIH [1]): 7% | CO2 released (FIH [1]): 0.22 nmol
Molecule: GST HIF-1α 775-826 N803D: GST HIF-1α 775-826 with Asn-803 mutated to aspartate (PSDLACRLLGQSMDESGLPQLTSYDCEVDAPIQGSRNLLQGEELLRALDQVN; cysteine pairing not given here; also: GST fusion, not in chain; UniProt Q16665 775-826, looked up, variant N803D)
2-OG turnover relative to the analogous Asn-803 substrate (FIH [1]; GST HIF-1α 775-826 mutant): ≤ 7%

% activity relative to 775-826 peptide (FIH [1]): <0.01% | CO2 released (FIH [1]): <0.001 nmol
Molecule: GST HIF-1α 775-826 N803E: GST HIF-1α 775-826 with Asn-803 mutated to glutamate (PSDLACRLLGQSMDESGLPQLTSYDCEVEAPIQGSRNLLQGEELLRALDQVN; cysteine pairing not given here; also: GST fusion, not in chain; UniProt Q16665 775-826, looked up, variant N803E)

% activity relative to 775-826 peptide (FIH [1]): <0.01% | CO2 released (FIH [1]): <0.001 nmol
Molecule: GST HIF-1α 775-826 N803Q: GST HIF-1α 775-826 with Asn-803 mutated to glutamine (PSDLACRLLGQSMDESGLPQLTSYDCEVQAPIQGSRNLLQGEELLRALDQVN; cysteine pairing not given here; also: GST fusion, not in chain; UniProt Q16665 775-826, looked up, variant N803Q)

% activity relative to 775-826 peptide (FIH [1]): 96% | CO2 released (FIH [1]): 2.7 nmol | ability to capture CH1 after pre-incubation with FIH (FIH [3]): strikingly reduced
Molecule: GST HIF-1α 775-826: N-terminal glutathione S-transferase tagged fusion of human HIF-1α residues 775-826 (CAD)

% activity relative to 775-826 peptide (FIH [1]): 100% | CO2 released (FIH [1]): 2.8 nmol
Molecule: HIF-1α 775-826: free polypeptide encompassing the human HIF-1α CAD (residues 775-826), GST tag removed
Vmax (FIH [1]; preliminary kinetic parameter, 2-OG turnover assay): 0.3 µmol/min/mg | Km (FIH [1]; preliminary kinetic parameter, 2-OG turnover assay, read-out: Km(peptide)): 10 µM

% activity relative to 775-826 peptide (FIH [1]): <0.01% | CO2 released (FIH [1]): <0.001 nmol
B1: His6-HIF-1α 530-698: His6-tagged section of HIF-1α, residues 530-698 (protein)
chain: EFKLELVEKLFAEDTEAKNPFSTQDTDLDLEMLAPYIPMDDDFQLRSFDQLSPLESSSASPESASPQSTVTVFQQTQIQEPTANATTTTATTDELKTVTKDRMEDIKILIASPSPTHIHKETTSATSSPYRDTQSRTASPNRAGKGVIEQTEKSHPRSPNVLSVALSQR
modifications: left off: small tags and cut ends

% activity relative to 775-826 peptide (FIH [1]): 1.8% | CO2 released (FIH [1]): 0.05 nmol
B2: GST HIF-1α 530-652: GST tagged fusion of human HIF-1α residues 530-652 (protein)
chain: EFKLELVEKLFAEDTEAKNPFSTQDTDLDLEMLAPYIPMDDDFQLRSFDQLSPLESSSASPESASPQSTVTVFQQTQIQEPTANATTTTATTDELKTVTKDRMEDIKILIASPSPTHIHKETT
modifications: left off: a dimerising Fc or GST

% activity relative to 775-826 peptide (FIH [1]): <0.01% | CO2 released (FIH [1]): <0.001 nmol
B3: His6-HIF-1α 344-503: His6-tagged section of HIF-1α, residues 344-503 (protein)
chain: GIIQHDLIFSLQQTECVLKPVESSDMKMTQLFTKVESEDTSSLFDKLKKEPDALTLLAPAAGDTIISLDFGSNDTETDDQQLEEVPLYNDVMLPSPNEKLQNINLAMSPLPTAETPKPLRSSADPALNQEVALKLEPNPESLELSFTMPQIQDQTPSPSD
modifications: left off: small tags and cut ends
